From patent publication US10487307B2, “Culture method for pluripotent stem cells” (FUJIFILM CORPORATION, priority 2013, dated 2019)

How the values were obtained:
[1] = Aggregation after dialysis of purified polypeptide solution; type: physicochemical; parameters: key: G: The formation of an aggregate was not observed.; A: The formation of particles having a particle size of about 100 nm was observed.; B: The formation of an aggregation of particles having a particle size of equal to or greater than 1 mm was visually observed
Method: For RCP-1 to RCP-11, each of the purified polypeptide solutions was dialyzed using Slide-A-Lizer (3.5 K MWCO.). Basically, by using a dialysis buffer (PBS, 1.5 M NaCl, 0.5 M L-arginine, 1 mM EDTA, pH 7.4) as an outer dialysate, urea was removed by stepwise dialysis. The concentration of the end-product of dialysis was calculated from the absorbence at 280 nm by using NanoDrop (Thermo Fisher Scientific Inc.).
Whether or not aggregation was occurred was evaluated based on the scale of A, and B as shown below.
G: The formation of an aggregate was not observed.
A: The formation of particles having a particle size of about 100 nm was observed.
B: The formation of an aggregation of particles having a particle size of equal to or greater than 1 mm was visually observed.

human iPS cells ("Tic") = experiment: Cell adhesiveness evaluation 1 (ALP activity of adhesive iPS cells); type: cell-based; conditions: 30,000 cells/well, 24 hours, natural vitronectin (sample 15) = 100%, n=3
Method: The cell adhesiveness of human iPS cells (“Tic”: Cell No. JCRB 1331: from National Institute of Biomedical Innovation. [567-0085, 7-6-8 Asagi Saito Ibaraki-City Osaka]) with respect to the aforementioned polypeptides was evaluated in the following manner.
As feeder cells for retaining the human iPS cells, EmbryoMax (registered trademark) (early mouse embryonic fibroblasts: resistant to hygromycin, treated with mitomycin C, derived from C57/BL6, third passage) (Millipore Corporation) was used. By using DMEM (Invitrogen) and a 10% (v/v) fetal bovine serum medium, the feeder cells were cultured for 24 hours and attached to a T25 flask (Corning Incorporated). As a medium for the human iPS cells, the one obtained by adding FGF-2 (Sigma-Aldrich Co, LLC.) to a medium composed as shown in Table 6 at a final concentration of 10 ng/ml was used.
By using the aforementioned medium, the human iPS cells were retained and cultured in a 5% (v/v, the same unit will be used hereinafter) CO2 incubator at 37° C. Except for the day after the seeding of the iPS cells, the medium was replaced every day. The subculture operation was performed by exfoliating the cells by using Dispase II (neutral protease Grade II, Roche) and separating the cells in an appropriate size by a pipetting operation.
The iPS cells cultured as described above were treated with TrypLE Select (Invitrogen) for 5 minutes at 37° C. and separated into a single cell. After being subjected to centrifugation for 2 minutes at 300 rpm, the cells were collected and suspended in TeSR2 (a medium not containing a heterogeneous animal-derived component and a serum component, STEMCELL Technologies.) containing Y-27362 ((R)-(+)-trans-N-(4-pyridyl)-4-(1-aminoethyl)-cyclohexane carboxamide.2HCl.H2O, an Rho binding kinase inhibitor, Wako Pure Chemical Industries, Ltd.) at a final concentration of 10 μM.
Each of RCP-1 to RCP-11, RCP-21, RCP-25, and RCP-26 as control, human vitronectin (extracted from human serum, BD Biosciences), and recombinant laminin (rLaminin-5: Oriental Yeast Co., ltd. and Human Recombinant Laminin-511: BIOLAMINA AB) was added to and suspended in a predetermined buffer (a dialysis buffer used in <GRAVY value and aggregation characteristics> described above for RCP-1 to RCP-11, and PBS for RCP-21, RCP-25, human vitronectin, and recombinant laminin) at the concentration shown in Table 7, thereby preparing samples 1 to 17. The samples were added to the respective wells of a 96-well plate and adsorbed onto the plate by being held for 2 hours at 37° C.
Into the respective wells of the 96-well plate treated with the peptides, iPS cells were seeded at a cell density of 30,000 cells/well. After the cells were cultured for 24 hours, the nonadhesive cells were washed off with PBS, and only the adhesive cells were immobilized by using 4% (v/v) paraformaldehyde (Wako Pure Chemical Industries, Ltd.). By using an Attophos (registered trademark) AP Fluorescent Substrate System (Promega Corporation), the ALP activity was calculated, and from the calibration curve, the number of undifferentiated iPS cells having the ALP activity was calculated. In Table 7, the cell adhesion rate is expressed as a ratio calculated by regarding the cell adhesion rate obtained from the sample 15 using natural vitronectin as being 100%. n=3.

iPS cells = experiment: Growth evaluation, number of cells after 3 days; type: cell-based, human; conditions: 5,000 cells/well, sample 1 (RCP-1) = 100%
Method: By adding RCP-1 to RCP-11 and Human Recombinant Laminin-511 as control at the concentration shown in Table 9, samples 1 to 12 were prepared. The samples were seeded into a 96-well plate, onto which each of the polypeptides was adsorbed in the same manner as in <Cell adhesiveness evaluation 1>, at a ratio of 5,000 cells/well and cultured for 3 days in a CO2 incubator at 37° C. The number of cells after 3 days was calculated in the same manner as in <Cell adhesiveness evaluation 1>. In Table 9, the number of cells after 3 days is expressed as a ratio calculated by regarding the number of cells obtained by using the sample 1 as being 100%.

Row | Molecule | Aggregation [1] | Cell adhesion rate (%) (human iPS cells ("Tic"); added amount 20 μg/cm^2) | Number of cells after 3 days (%) (iPS cells; added amount 20 μg/cm^2) | Cell adhesion rate (%) (human iPS cells ("Tic"); added amount 5 μg/cm^2) | Number of cells after 3 days (%) (iPS cells; added amount 5 μg/cm^2)
1 | RCP-4: recombinant polypeptide for culture, SEQ ID NO: 18; vitronectin positions 1-55, 312-341, 342-373 (protein, Vitronectin-derived Recombinant Protein (RCP-4)) MDQESCKGRCTEGFNVDKKCQCDELCSYYQSCCTDYTAECKPQVTRGDVFTMPEDEQPQFISRDWHGVPGQVDAAMAGRIYISGMAPRPSLAKKQRFRHRNRKGYRSQRGHSRGRNQN | G | 100.1 ± 4.5% | 120.7% |  | 
2 | RCP-2: recombinant polypeptide for culture, SEQ ID NO: 16; vitronectin positions 1-55 and 342-373 (protein, Vitronectin-derived Recombinant Protein (RCP-2)) MDQESCKGRCTEGFNVDKKCQCDELCSYYQSCCTDYTAECKPQVTRGDVFTMPEDEPRPSLAKKQRFRHRNRKGYRSQRGHSRGRNQN | G | 98.7 ± 6.2% | 81.7% |  | 
3 | RCP-7: recombinant polypeptide for culture, SEQ ID NO: 21; vitronectin positions 1-55, 269-373, C274S (protein, Vitronectin-derived Recombinant Protein (RCP-7), vitronectin positions 1-55, 269-373, C274S) MDQESCKGRCTEGFNVDKKCQCDELCSYYQSCCTDYTAECKPQVTRGDVFTMPEDESQEESEGSSLSAVFEHFAMMQRDSWEDIFELLFWGRTSAGTRQPQFISRDWHGVPGQVDAAMAGRIYISGMAPRPSLAKKQRFRHRNRKGYRSQRGHSRGRNQN | A |  |  | 88.6 ± 8.1% | 89.9%
4 | RCP-3: recombinant polypeptide for culture, SEQ ID NO: 17; vitronectin positions 1-55, 322-341, 342-373 (protein, Vitronectin-derived Recombinant Protein (RCP-3)) MDQESCKGRCTEGFNVDKKCQCDELCSYYQSCCTDYTAECKPQVTRGDVFTMPEDEGVPGQVDAAMAGRIYISGMAPRPSLAKKQRFRHRNRKGYRSQRGHSRGRNQN | G | 106.1 ± 4.5% | 109.7% |  | 
5 | RCP-10: recombinant polypeptide for culture, SEQ ID NO: 24; vitronectin positions 1-55, 269-373, 374-399, C274S (protein, Vitronectin-derived Recombinant Protein (RCP-10), vitronectin positions 1-55, 269-373, 374-399, C274S) MDQESCKGRCTEGFNVDKKCQCDELCSYYQSCCTDYTAECKPQVTRGDVFTMPEDESQEESEGSSLSAVFEHFAMMQRDSWEDIFELLFWGRTSAGTRQPQFISRDWHGVPGQVDAAMAGRIYISGMAPRPSLAKKQRFRHRNRKGYRSQRGHSRGRNQNSRRPSRATWLSLFSSEESNLGANNYD | B (The formation of an aggregation of particles having a particle size of equal to or greater than 1 mm was visually observed.) | 93.0 ± 7.8% | 101.9% |  | 
6 | RCP-6: recombinant polypeptide for culture, SEQ ID NO: 20; vitronectin positions 1-55, 269-459, C274S (protein, Vitronectin-derived Recombinant Protein (RCP-6), vitronectin positions 1-55, 269-459, C274S) MDQESCKGRCTEGFNVDKKCQCDELCSYYQSCCTDYTAECKPQVTRGDVFTMPEDESQEESEGSSLSAVFEHFAMMQRDSWEDIFELLFWGRTSAGTRQPQFISRDWHGVPGQVDAAMAGRIYISGMAPRPSLAKKQRFRHRNRKGYRSQRGHSRGRNQNSRRPSRATWLSLFSSEESNLGANNYDDYRMDWLVPATSEPIQSVFFFSGDKYYRVNLRTRRVDTVDPPYPRSIAQYWLGSPAPGHL | A | 92.8 ± 4.4% | 70.5% |  | 
7 | RCP-8: recombinant polypeptide for culture, SEQ ID NO: 22; vitronectin positions 1-55, 269-373, 374-379, C274S (protein, Vitronectin-derived Recombinant Protein (RCP-8), vitronectin positions 1-55, 269-373, 374-379, C274S) MDQESCKGRCTEGFNVDKKCQCDELCSYYQSCCTDYTAECKPQVTRGDVFTMPEDESQEESEGSSLSAVFEHFAMMQRDSWEDIFELLFWGRTSAGTRQPQFISRDWHGVPGQVDAAMAGRIYISGMAPRPSLAKKQRFRHRNRKGYRSQRGHSRGRNQNSRRPSR | A |  |  | 89.2 ± 1.4% | 171.0%
8 | RCP-9: recombinant polypeptide for culture, SEQ ID NO: 23; vitronectin positions 1-55, 269-373, 374-389, C274S (protein, Vitronectin-derived Recombinant Protein (RCP-9), vitronectin positions 1-55, 269-373, 374-389, C274S) MDQESCKGRCTEGFNVDKKCQCDELCSYYQSCCTDYTAECKPQVTRGDVFTMPEDESQEESEGSSLSAVFEHFAMMQRDSWEDIFELLFWGRTSAGTRQPQFISRDWHGVPGQVDAAMAGRIYISGMAPRPSLAKKQRFRHRNRKGYRSQRGHSRGRNQNSRRPSRATWLSLFSSE | B (The formation of an aggregation of particles having a particle size of equal to or greater than 1 mm was visually observed.) | 95.5 ± 10.2% | 105.8% |  | 
